Laboratory results taken from patent publication US20140303084A1 (Biogen, published 2014).
Square brackets hold non-standard residues; d marks the D form. Primed or numbered codes have the meaning given here. Ends that are not written are not given here. Pra = C#CC[C@H](N)C(=O)O; PEG4′ = PEG4 spacer

target: human Factor IXa (human, UniProt P00740 47-191; P00740 227-461); assay: cell-based or functional assay

| Binder | EC50 [µM], FXa generation assay [µM] | EC50 [µM], FXa generation assay with hFIXa [µM] |
| --- | --- | --- |
| RRAPGKLTCLASYCWLFWTGYASGKPSRVYVI [RRAPGKLTCLASYCWLF WTGYA SGKPSRVYVI] | > 1 |  |
| RRAPGKLTCLASYCWLFWTGFAFRVGLASSLY [RRAPGKLTCLASYCWLF WTGFA FRVGLASSLY] | < 0.5 |  |
| PRIRTVGPGSRSASGKSTCLASYCWLFWTGIAX (not fully specified; D-Arg 4, D-Arg 11, C-terminal PEG4-Pra) [PRIrTVGPGSrSASGKSTCLASYCWLFWTGIA-PEG4-Pra] | < 0.5 |  |
| RRAPGKLTCLASYCWLFQTGWAYWGYRQHPGS [RRAPGKLTCLASYCWLF QTGWA YWGYRQHPGS] | < 0.5 |  |
| SRIRTVGPGSRSASGKLTCLASYCWLFWTGIA | < 0.5 |  |
| SRIRTVSPGSRSASGKSTCLASYCWLFWTGIA | < 0.5 |  |
| PRIRTVSPGSRSASGKSTCLASYCWLFWTGIA | < 0.5 |  |
| PRIRTVGPGSRSASGKLTCLASYCWLFATGIA | < 0.5 |  |
| SRIRTVGPGSRSASGKSTCLASYCWLFWTGIA | < 0.5 |  |
| PRIRTVSPGSRSASGKLTCLASYCWLFWTGIA | < 0.5 |  |
| PRIRSVGPGSRSASGKLTCLASYCWLFWTGIA | < 0.5 |  |
| PRIRTVGPGSRSASGKLTCLASYCWLFWSGIA | < 0.5 |  |
| PRIRTVGPGSRSASGKSTCLASYCWLFWTGIA | < 0.5 |  |
| PRIRTVGPGSRSASGKLTCLASYCWLFLTGIA | < 0.5 |  |
| PRIRTVGPGSRSASGKLTCLASYCWLAWTGIA | > 1 |  |
| PRSRTVGPGSRSASGKSTCLASYCWLFWTGIA | < 0.5 |  |
| PRISTVGPGSRSASGKLTCLASYCWLFWTGIA | < 0.5 |  |
| PRIRTVGSGSRSASGKLTCLASYCWLFWTGIA | < 0.5 |  |
| PSIRTVGPGSRSASGKLTCLASYCWLFWTGIA (not fully specified; cysteine pairing not given here) | < 0.5 |  |
| SRSRTVSPGSRSASGKSTCLASYCWLFWTGIA | < 0.5 |  |

| Binder | EC50 [µM], FXa generation assay [µM] | EC50 [µM], FXa generation assay with hFIXa [µM] |
| --- | --- | --- |
| PRIRTVGPGSRSASGKLTCLASYCWLFFTGIA | < 0.5 |  |
| PRSRTVGPGSRSASGKLTCLASYCWLFWTGIA | < 0.5 |  |
| PRIRTVGPGSRSASGKLTCLASYCWLLWTGIA | < 0.5 |  |
| PRIRTVGPGSRSASGKLTCLASYCWLFWTLIA | < 0.5 |  |
| PRIRTVGPSSRSASGKLTCLASYCWLFWTGIA | < 0.5 |  |
| PRIRTSGPGSRSASGKLTCLASYCWLFWTGIA | < 0.5 |  |
| RRAPGKLTCLASYCWLFEPGIAQPYAKSPTRN [RRAPGKLTCLASYCWLF EPGIA QPYAKSPTRN] | > 1 |  |
| WSLCFKLTCAYL-NH2 (cysteine pairing not given here) [compound A] |  | > 100 |
| RRAPGKLTCLASYCWLFWTGLASTLYKTYTRE [RRAPGKLTCLASYCWLF WTGLA STLYKTYTRE] | > 1 |  |
| RRAPGKLQCLASYCWLFWTGIA-NH2 (not fully specified (bridges); cysteine pairing not given here) [compound 3] |  | < 0.5 |
| RRAPGKLTCLASYCWLFSTPVARKSLRRHQPT (not fully specified (C-terminus); cysteine pairing not given here) [RRAPGKLTCLASYCWLF STPVA RKSLRRHQPT] | > 10 |  |
| RRAPGKLTCLASYCWLFWRGFAERASEDTNQG [RRAPGKLTCLASYCWLF WRGFA ERASEDTNQG] | > 1 |  |
| RRAPGKLTCLASYCWLFWTGWAVLARVPVGWT [RRAPGKLTCLASYCWLF WTGWA VLARVPVGWT] | < 0.5 |  |
| TLWPWGGQGGRNAPGKLTCLASYCWLFWTGIA [TLWPWGGQGG RNAPG KLTCLASYCWLFWTGIA] | > 1 |  |
| RRAPGKLTCLASYCWLFWTGLSRYQWQAQEDV [RRAPGKLTCLASYCWLF WTGLS RYQWQAQEDV] | > 1 |  |
| RRAPGKLTCLASYCWLFWTGWCRDTASHACDS [RRAPGKLTCLASYCWLF WTGWC RDTASHACDS] | > 1 |  |
| RRAPGKLTCLASYCWLFSTGVATHANTTATAQ [RRAPGKLTCLASYCWLF STGVA THANTTATAQ] | > 1 |  |
| [Pra][PEG4′]PRI[dR]TVGPGS[dR]SASGKSTCLASYCWLFWTGIA (not fully specified (C-terminus); printed as Pra-PEG4-PRIrTVGPGSrSASGKSTCLASYCWLFWTGIA; cysteine pairing not given here) [Pra-PEG4-PRIrTVGPGSrSASGKSTCLASYCWLFWTGIA] | > 1 |  |
| TGLLQGRRDERARPPKLTCLASYCWLFWTGIA [TGLLQGRRDE RARPP KLTCLASYCWLFWTGIA] | < 0.5 |  |
